Here are results for 30 sequences from the nanobody polyreactivity screen of Harvey et al. (2022).

This series is described as follows: yeast display, Sf9 membrane polyspecificity reagent, FACS + sequencing; frameworks hold sequencing errors. The procedure, abridged: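 Galactose-induced (36–48 hours) yeast carrying a synthetic nanobody display library were exposed to 10% biotinylated, detergent-solubilized Sf9 membrane reagent at 4 °C for 1 hour. FACS followed streptavidin microbead enrichment, using low and high (top ~1%) gates for expression (anti-HA) and reagent binding (streptavidin). Colony PCR, MiSeq 2 × 250 sequencing and CDR-length filtering followed. Labels for polyreactivity reflect the gate of origin.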
As for “QVQLVESGGGLVQAGGSLRLSCAASGFTFWTYAMGWYRQAPGKERELVAAIDSGGSTYYADSVKGRFTISRDNAKNTVYLQMNSVKPEDTAVYYCNAGPSVTSGYDYDYWGQGTQVTVSS”, the “polyreactivity (PSR sort gate)” value is on record as “low polyreactivity”. For “KGQHVESGGGLVQAGGRLRLSCAASGSIFRYNAMGWDRQAPGKEREFVAAISWSGGRTFYADSVKGRFTISRDNAKNTVYLQMNSLKPEDTAVYYCAARSSRTTRQGYDYWGHGTQVTVSS”, the “polyreactivity (PSR sort gate)” value is listed as “high polyreactivity”.

Regarding “QVQLVESGGGLVQAGGSLRLSCAASGRIFSGNAMGWYRQAPGKERELVAAISRGGSTDYADSVKGRFTISRDNAKNTVYLQMNSLKPEDTAVYYCAARVNGKRRRYDYWGQGTQVTVSS”, the “polyreactivity (PSR sort gate)” value is “high polyreactivity”. Regarding “QVQLVESGGGLVQAGGSLRLSCAASGSTLYIYAMGWYRQAPGKERELVAAITSSTGSTYADSVKGRFTISRDNAKNTVYLQMNSLKPEDTAVFVCNAGGPLQPYDYWGQGTQVTVSS”, the “polyreactivity (PSR sort gate)” value was “low polyreactivity”. For the sequence “QVQLVESGGGLVQAGGSLRLSCAASGRTFRSYTMGWYRQAPGKERELVASITRSGVSTYYADSVKGRFTISRDNAKNTVYLQMNSLKPEDTAVYYCAAYSVFRSYDYWGQGTQVTVSS”, the “polyreactivity (PSR sort gate)” value is listed as “high polyreactivity”. In the case of “QVQLVESGGGLVQAGGSLRLRCAASGITLAGYVMGWYRQAPGKERELVADISSSGDSTYYADSVKGRFTISRDNAKNTVYLQMNSLKPEDTAVYYCNADQVWWSFDRVLVGYEYWGQGSQVTVSS”, the “polyreactivity (PSR sort gate)” value is reported as “low polyreactivity”. The value for “QVQLVESGGGLVQAGGSLRLSCAASGFTFNDYAMGWYRQAPGKERELVAAIDWSGGRTYYADSVKGRFTISRDNAKNTVYLQLNSLKPEDTAVDYCAVEDLSHAYVQHYRYGYGYWGQGTQVTVSS” was “low polyreactivity”. For “QVQHVESGGGLVQAGGSLRLSCAASGRIFAVNTMGWYRPAPVKERELVAAITSTGRTYYADSVKGRFTISRDNAKNTVYLQMNSLKPEDSAVYYCAADFRYPYAHLPYGYWGQGTQVTVSS”, the “polyreactivity (PSR sort gate)” value is on record as “high polyreactivity”. As for “QVQLVESGGGLVQAGGSLRLSCAASGSIFDYYAMGWYRQAPGKERELVAAIDSGDITYYADSVKGRFTISRDNAMNTVYLQMNSLKPEETAVYYCAAEGTGYSVGWQYGYWGQGTQVTVSS”, the “polyreactivity (PSR sort gate)” value is “low polyreactivity”.

With “QVQLVESGGGLVQAGGSLRLSCAASGITFRSYAMGWYRQAPGKERELVATISWSGGITYYADSVKGRFTISRDNAKNTVYLQMNSLKPEDTAFYYCAKASQSWGRVDYYYWGLGTQVTVSS”, the “polyreactivity (PSR sort gate)” value is given as “low polyreactivity”. For the sequence “QVQLVESGGGLVQAGGSLRLSCAASGRILYYNDMGWYRQAPGKERELVAAIDRGGSTSYADSVKGRFTISRDNAMNTVYLQMNSLKQEDTAVYYCAVARGGRRKYEYWGQGTQVTVSS”, the “polyreactivity (PSR sort gate)” value is reported as “low polyreactivity”. As to “QEQLVESGGGLVQAGGSLRLSCAASGGTFGSNTRGWYRQAPGKERELVAAITSGVSTNYADSVKGRFTISRDNAKITVYLQMNRLKPEDTAVYYCAKELWSEEYETIITYYGFDYLGQGTQVTVSS”, the “polyreactivity (PSR sort gate)” value was “low polyreactivity”.

“QVQLVESGGGLVQAGGSLRLTCAASGRIFKYYAMGWYRQAPGKEREFVADISRRGGSTYYADSVKGRFTISRDNAKNTVYLQMNSLKPEDTAVYYCAAQSGYIMDYWGQGTQVTVSS”: the “polyreactivity (PSR sort gate)” value is “high polyreactivity”. As for “HVQLVESGGGLVQAGGSLRLSCAASGSTFFKYGMGWNRQAPGKERELVASITSRTGSTYYADSVKGRFTISRDNAKNTVYLQMKSLKPEDTAVYYCNVRRGGGYRYGARTFIYGHWGEGTQVTVSS”, the “polyreactivity (PSR sort gate)” value is “high polyreactivity”. Take “QVQLVESGGGLVQAGGSLRLTCAASGRTFNDYAMGWYRQAPGKEMELVAGITWRGGSTYYADSVKGRFTISRHNAKNTVYLQMNSLKPEDTAVYYCAVKRPWRKMGYWGQGTQVTVSS”: the “polyreactivity (PSR sort gate)” value is reported as “high polyreactivity”. For “QVQLVESGGGVVQAGGILRFSCAASGRTFAPDAMGWYRQAPGKERELDAAITNGGSTTYADSVKGRFTISRDNAKNTVYLHMNSLNPEDTAVYYCAADIVSSTDYPFDYWGQGTQVNVSS”, the “polyreactivity (PSR sort gate)” value is “low polyreactivity”.

As to “QVQLVESGGGLVQAGGSLRLSCAASGSIFGGNDMGWYRQAPGKERELVAAITSSGGSTYYADSVKGRFTISRDNAKNTVYLQMNSLKPEDTAVYYCYADYYGPYRDYGYWGQGTQVTVSS”, the “polyreactivity (PSR sort gate)” value is listed as “low polyreactivity”. The value for “QVQLVVSGGGLVQAGGSLRLSCAASGRIFRAYAMGWYRQAPGQERELVADITSGSGSTYYADSVKGRFTISRDNAKNTVYLQMNSLKPEDTAVYYCAADVFIRDWEYYYWGQGTQVTVSS” was “low polyreactivity”; that for “QVQLVESGRGLFQEGGSLRLSCAPSGFIFGKYAMGWYRQAPGTEREFVAAITRNGGSTYYADSVKGRVTISRDNAKNTVYLQMNSLKPDDTAVYYCNADRGYRRRTGMDDWGQVTQVTVSS” was “low polyreactivity”. As for “QVQHVESGGGLVQAGGSLRLSCAASGRIINTYAMGWYRPAPGKERELVAAISWSGGSTYYADSVKGRFTISRDNAKNTVDLQMNSLKPEDTAVYYCNAAYYGYENLSKRGYWGQGTQVTVSS”, the “polyreactivity (PSR sort gate)” value is “high polyreactivity”.

As for “QVQLVESGGGLVQAGGSLRLSCAASGSIFNRYAMGWYRQAPGKERELVAAISTHTGTTYYADSVKGRFTISRDNAKNTDYLQMNSLKPEDTAGYYCAKRSRYGYGKSYDYWGQGTQVTVSS”, the “polyreactivity (PSR sort gate)” value is “high polyreactivity”. For “QVQLVESGGGLVQAGGSLRLSCAASGSIFWYNTMGWYRQAPGKERELVASISWDGGTYYADSVKGRFTISRDNAKNTVYLQMNSLKPEVTAVYYCNVAWYWGYDYWGQGTQVTVSS”, the “polyreactivity (PSR sort gate)” value is on record as “low polyreactivity”. Turning to “QFQLVESGGGIVQAGGSLRLSCYASGTFYKYAMGWNTQAPGKERELVAAISWRGGRTYADSVKGRFTISRDNAKNTVYLQMNSLIPEDTAVYYCYKRFYPEHYYWGQGTQVTVSS”, the “polyreactivity (PSR sort gate)” value is recorded as “high polyreactivity”. With “QVQLVESGGGLVQAGGSLRLSCAASGATFGYYAMGWYRQAPGKEMEFVARITQRGSRTYYADSVKGRFTISRDNAKNTVYLQMNSLKPEDTAVYYCDAEVWWTHNGRGAYGYDYWGQGTHVTVSS”, the “polyreactivity (PSR sort gate)” value is listed as “high polyreactivity”. With “QVQHVESGGGIVQAGGSLRLSCAASGFTFWYYAMGWYRQAPGKERELVAVINTSGGSTYADSVKGRFTISRDNAKNTVFLQMNSLKPEDTAVYYCNKDFIYGYDAASYRPEYDYWGQGTQVTVSS”, the “polyreactivity (PSR sort gate)” value is “low polyreactivity”. As to “QVQLVESGGGLVQAGGSLRLSCAASGNTFVYNDMGWYRQAPGKERELVADIRYSGSTYYADSVKGRFTISRDNAMNSVYLQMNSLKPEDTAVYYCAKAYYVLSWMGYWGQGTQVTVSS”, the “polyreactivity (PSR sort gate)” value is listed as “low polyreactivity”. On to “QVQLVESVGCLVQAGGSHRLSCAASVFIFGANAMGWYRQAPGKESELVAAIRWSSGTTYYADSVKGRFTISRDNAKNTVYLQINSLKPEDTAVYYCAAGGLARTWYAYYYWGQGTQVTVSS”, for which the “polyreactivity (PSR sort gate)” value is reported as “low polyreactivity”.

As to “QVQLVESGGGLVQAGGSLRLSSAASRITFDQNAMGWYRQAPGKERELVAAITRGSSTNYADSVKGRFTISRDNAKNTVYLQMNSLKPEDTAVYYCNADGYARFRTYYSRDTREYDYWGQGTQVTVSS”, the “polyreactivity (PSR sort gate)” value is recorded as “low polyreactivity”. For “QVQLVESGGGLVQAGGSLRLSCAASGFTLYPYGMGWYRQAAGKERELVASISSRVGRTYYADSVKGRFTISRDNAKNTVYLQMNSLKPEDTAVYYCAASRLVRYQSRYASWGQGTQVTVSS”, the “polyreactivity (PSR sort gate)” value is recorded as “high polyreactivity”. With “QVQLVESGGGLVQAGASLRLSCAASGSIFFPYAMGWYRQAPGKERELVASITRAGSTNYADSVKGRFTISRDNAKNTVYLQMTSQKPVDTAVYYCAARNYRQFEYGYWGQGTLVTVSS” the entry was “low polyreactivity”.
